Source: patent US20250326860A1 (ADAGENE PTE, published 2025)
Changes are numbered by the printed parent chain. Like-named read-outs stand apart in the source and are kept apart here. One block for each binder: values may come before it.

Assays:
[1] = target: T1, cynomolgus monkey CD20 on B cells (cynomolgus monkey, UniProt M4ZHZ6 1-297); assay: flow cytometry, monkey B cells
T1 construct: whole, on cells
T1 sequence: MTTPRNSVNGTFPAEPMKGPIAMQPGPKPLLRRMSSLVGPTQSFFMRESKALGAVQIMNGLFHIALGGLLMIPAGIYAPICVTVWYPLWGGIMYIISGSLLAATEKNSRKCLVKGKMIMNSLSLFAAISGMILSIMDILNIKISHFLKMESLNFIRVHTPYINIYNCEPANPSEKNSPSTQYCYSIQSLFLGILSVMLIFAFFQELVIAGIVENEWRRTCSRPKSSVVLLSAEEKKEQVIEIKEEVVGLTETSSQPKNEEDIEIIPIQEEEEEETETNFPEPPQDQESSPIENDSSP
Text: (§1) Human and monkey PBMCs were isolated as mentioned above. Human B cells were further isolated from PBMCs using the EasySep™ Human B Cell Isolation Kit (Stem Cell Technologies). Monkey B cells were isolated from PBMCs using the Non-Human B Primate Cell Isolation Kit (Stem Cell Technologies). Purified human or monkey B cells were stained with the testing antibodies as the primary antibody and the APC-labelled anti-human-Fc antibody (BioLegend) as the secondary antibody. After washing, the cells were analyzed on the CytoFLEX flow cytometer (Beckman Coulter) and the data was analyzed by FlowJo software.

[2] = target: T2, human CD20 on cells (human B cells; Raji, SU-DHL-8, SU-DHL-4, A3KAW, NAMALWA) (human, UniProt P11836 1-297); assay: flow cytometry, human B cells
T2 construct: whole, on cells
T2 sequence (looked up): T1 sequence with P25S, L31F, A51T, V157A, R217K, S226N, V227I, V239T
Text: as §1

[3] = target: T3, cynomolgus monkey CD3 on T cells (cynomolgus monkey, UniProt Q95LI5 22-198); assay: flow cytometry, monkey CD4+ T cells
T3 construct: whole, on cells
Description: (§2) Binding of CD20xCD3 bispecific or SAFE-bispecific antibodies to purified human CD3+ T cells was determined by flow cytometry. Briefly, human or monkey PBMC were freshly purified with Ficoll gradient solution—Histopaque 1077 (Sigma) from a healthy donor and CD3+ T cells were isolated using EasySep™ Human T cell Enrichment Kit (StemCell). Before staining, […] human Fc receptors on CD3+ T cells were blocked with Human Fc Block (BD). Then cells were incubated with fluorescence labeled antibody mixture (APC-Cy7 Mouse Anti-human CD3, PerCP-CyTM5.5 Anti-human CD4 and FITC anti-human CD8) for 15 minutes at 4° C. After washing the cells once with PBS supplemented with 2% FBS, cells were aliquoted to 96-well plates at 2×10⁵ cells per well, and cells were incubated with serial diluted bispecific, SAFE-bispecific or IgG1 isotype control antibodies for 30 minutes at 4° C. After washing the cells twice with PBS supplemented with 2% FBS, cell surface bound antibody was detected by incubating the cells with APC-labeled mouse anti-human IgG Fc secondary antibody for 30 minutes at 4° C. Cells were washed and detected by FACS using Cytoflex (BeckMan) and data was analyzed by FlowJo. The mean fluorescence (MFI) of each antibody binding to human or monkey CD4+ T cells and CD8+ T cell populations were fitted with four-parameter non-linear regression to get EC₅₀ values by GraphPad Prism software.

[4] = target: T2, human CD20 on cells (human B cells; …); assay: flow cytometry, A3KAW cells
Description: (§3) Raji, SU-DHL-8, SU-DHL-4, A3KAW and NAMALWA were B-cell lymphoma cell lines with various CD20 expression levels on cell surface. Briefly, the test antibodies were serial diluted and were incubated with the tumor cells on ice. After washing, the cells were subsequently incubated with the APC-labelled anti-human-Fc secondary antibody (BioLegend) on ice. The cells were then washed with PBS prior to analysis by the CytoFLEX flow cytometer (Beckman Coulter). The data was analyzed by FlowJo software.

[5] = target: T2, human CD20 on cells (human B cells; …); assay: flow cytometry, NAMALWA cells
Description: as §3

[6] = target: T2, human CD20 on cells (human B cells; …); assay: flow cytometry, SU-DHL-4 cells
Description: as §3

[7] = target: T4, human CD3 on cells (Jurkat cells, human T cells) (human, UniProt P07766 23-207); assay: flow cytometry, human CD8+ T cells
T4 construct: whole, on cells
Description: as §2

[8] = target: T4, human CD3 on cells (Jurkat cells, human …); assay: flow cytometry, human CD4+ T cells
Description: as §2

[9] = target: T4, human CD3 on cells (Jurkat cells, human …); assay: flow cytometry, human CD3+ T cells
Text: (§4) Human PBMCs were freshly isolated from the blood of healthy donors by density gradient centrifugation using Histopaque-1077 (Sigma). Human CD3+ T cells were further isolated from PBMCs using the Human T Cell Enrichment Kit (Stem Cell Technologies). Monkey PBMCs were isolated from a naïve cynomolgus monkey by density gradient centrifugation using Histopaque-1077 (Sigma). Monkey CD3+ T cells were isolated from PBMCs using the Pan T Cell Isolation Kit Non-Human Primate (Miltenyi Biotec). Purified human or monkey CD3+ T cells were stained with the testing antibodies as the primary antibody and the APC-labelled anti-human-Fc antibody (BioLegend) as the secondary antibody. After washing, the cells were analyzed on the CytoFLEX flow cytometer (Beckman Coulter) and the data was analyzed by FlowJo software.

[10] = target: T3, cynomolgus monkey CD3 on T cells; assay: flow cytometry, monkey CD8+ T cells
Description: as §2

[11] = target: T2, human CD20 on cells (human B cells; …); assay: flow cytometry, SU-DHL-8 cells
Description: as §3

[12] = target: T2, human CD20 on cells (human B cells; …); assay: flow cytometry, Raji cells
Description: as §3

[13] = target: T3, cynomolgus monkey CD3 on T cells; assay: flow cytometry, monkey CD3+ T cells
Text: as §4

[14] = target: T1, cynomolgus monkey CD20 on B cells; assay: flow cytometry, monkey B cells; remark: listed apart in the source
[15] = target: T4, human CD3 on cells (Jurkat cells, human …); assay: binding to human CD3+ T cells
[16] = target: T2, human CD20 on cells (human B cells; …); assay: flow cytometry, human B cells; remark: listed apart in the source
Description: After washing the cells twice with PBS supplemented with 2% FBS, cell surface bound antibody was detected by incubating the cells with APC-labeled mouse anti-human IgG Fc secondary antibody for 30 minutes at 4° C. Cells were washed and detected by FACS using Cytoflex (BeckMan) and data was analyzed by FlowJo.

[17] = target: T4, human CD3 on cells (Jurkat cells, human …); assay: binding to human CD4+ T cells
[18] = target: T4, human CD3 on cells (Jurkat cells, human …); assay: binding to human CD8+ T cells

T3 sequence (Q95LI5 22-198): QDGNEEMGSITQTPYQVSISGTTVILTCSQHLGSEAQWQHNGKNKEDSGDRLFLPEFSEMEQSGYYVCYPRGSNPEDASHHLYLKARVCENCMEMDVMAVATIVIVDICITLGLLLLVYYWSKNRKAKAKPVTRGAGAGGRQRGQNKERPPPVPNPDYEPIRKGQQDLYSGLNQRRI
T4 sequence (P07766 23-207): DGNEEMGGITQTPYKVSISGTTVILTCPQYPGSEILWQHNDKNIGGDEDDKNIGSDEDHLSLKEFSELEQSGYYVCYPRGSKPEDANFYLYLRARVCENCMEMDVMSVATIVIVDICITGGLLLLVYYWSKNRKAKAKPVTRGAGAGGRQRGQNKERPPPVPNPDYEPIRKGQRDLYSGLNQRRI

- EC50 [1]: 0.0838 µM
- max MFI [1]: 6020 MFI
- EC50 [2]: 0.0126 µM
- max MFI [2]: 32300 MFI
- EC50 [3]: 0.12 µM
- EC50 [4]: 0.487 µM
- Max MFI [4]: 675000 MFI
- EC50 [5]: 0.592 µM
- Max MFI [5]: 447000 MFI
- EC50 [6]: 0.0269 µM
- Max MFI [6]: 2.29e+06 MFI
- EC50 [7]: 0.0372 µM
- EC50 [8]: 0.0621 µM
- EC50 [9]: 0.00692 µM
- max MFI [9]: 6490 MFI
- EC50 [10]: 0.0586 µM
- EC50 [11]: 0.0486 µM
- Max MFI [11]: 3640 MFI
- EC50 [12]: 0.135 µM
- Max MFI [12]: 22000 MFI
- EC50 [13]: 0.0266 µM
- max MFI [13]: 3200 MFI
B1: TAC2392 (bispecific antibody)
light: QIVLTQSPSSLSASVGDRVTITCRASSSVSYIHWFQQKPGKSPKPLIYATSNLASGVPVRFSGSGSGTDYTLTISSLQPEDFATYYCQQWTSNPPTFGGGTKVEIKRTVAAPSVFIFPPSDEQLKSGTASVVCLLNNFYPREAKVQWKVDNALQSGNSQESVTEQDSKDSTYSLSSTLTLSKADYEKHKVYACEVTHQGLSSPVTKSFNRGEC
heavy: QVQLVQSGAEVKKPGASVKVSCKASGYTFTSYNMHWVRQAPGQGLEWMGAIYPGNGDTSYNQKFQGRVTITADKSISTAYMELSSLRSEDTAVYYCARSTYYGGDWYFNVWGAGTLVTVSSASTKGPSVFPLAPSSKSTSGGTAALGCLVKDYFPEPVTVSWNSGALTSGVHTFPAVLQSSGLYSLSSVVTVPSSSLGTQTYICNVNHKPSDTKVDKKVEPKSCDKTHTCPPCPAPPVAGPSVFLFPPKPKDTLMISRTPEVTCVVVDVKHEDPEVKFNWYVDGVEVHNAKTKPREEEYNSTYRVVSVLTVLHQDWLNGKEYKCKVSNKALPAPIEKTISKAKGQPREPQVYTLPPSREEMTKNQVSLTCDVSGFYPSDIAVEWESDGQPENNYKTTPPVLDSDGSFFLYSKLTVDKSRWEQGDVFSCSVMHEALHNHYTQKSLSLSPGK
chain: not shown
notes: also called CD20xCD3 bispecific antibody

- EC50 [14]: 0.0391 µM
- EC50 [3]: 0.0273 µM
- EC50 [15]: 0.0217 µM
- binding result [16]: binds
- EC50 [17]: 0.0181 µM
- EC50 [9]: 0.00952 µM
- max MFI [9]: 4850 MFI
- EC50 [10]: 0.0821 µM
- EC50 [18]: 0.0254 µM
- EC50 [13]: 0.0105 µM
- max MFI [13]: 2100 MFI
B2: TY25455 (bispecific antibody, human IgG1, kappa, N297A)
light: QIVLSQSPAILSASPGEKVTMTCRASSSVSYIHWFQQKPGKSPKPWIYATSNLASGVPVRFSGSGSGTSYSLTISRVEAEDAATYYCQQWTSNPPTFGGGTKVEIKRTVAAPSVFIFPPSDEQLKSGTASVVCLLNNFYPREAKVQWKVDNALQSGNSQESVTEQDSKDSTYSLSSTLTLSKADYEKHKVYACEVTHQGLSSPVTKSFNRGEC
heavy: EVQLVQSGAEVKKPGSSVKVSCKASGYTFTSYNMHWVRQAPGKGLEWIGAIYPGSGDTSYNQKFKGRVTITADKSTSTAYMELSSLRSEDTAVYYCARSTYYGGDWYFNVWGQGTLVTVSSASTKGPSVFPLAPSSKSTSGGTAALGCLVKDYFPEPVTVSWNSGALTSGVHTFPAVLQSSGLYSLSSVVTVPSSSLGTQTYICNVNHKPSNTKVDKKVEPKSCDKTHTCPPCPAPELLGGPSVFLFPPKPKDTLMISRTPEVTCVVVDVSHEDPEVKFNWYVDGVEVHNAKTKPREEQYASTYRVVSVLTVLHQDWLNGKEYKCKVSNKALPAPIEKTISKAKGQPREPQVYTLPPSRKKLTKNQVKLTCLVKGFYPSDIAVEWESNGQPENNYKTTPPVLDCDGSFFLYSKLTVDKSRWQQGNVFSCSVMHEALHNHYTQKSLSLSPGK
chain: QAVVTQEPSLTVSPGGTVTLTCGSSTGAVTTSNYPNWVQQKPGQAPRGLIGGTNKRAPGVPARFSGSLLGGKAALTLSGAQPEDEAEYYCALWYSNLWVFGGGTKLTVLGGGGSGGGGSGGGGSGGGGSEVQLVESGGGLVQPGGSLRLSCAASGFTFNTYAINWVRQAPGKGLEWVGRIRSKYNNYATYYAESVKGRFTISRDDSKNTLYLQINSLRAEDTAVYYCVRHGNFGTSYVSWFAYWGQGTLVTVSSEPKSSDKTHTCPPCPAPELLGGPSVFLFPPKPKDTLMISRTPEVTCVVVDVSHEDPEVKFNWYVDGVEVHNAKTKPREEQYASTYRVVSVLTVLHQDWLNGKEYKCKVSNKALPAPIEKTISKAKGQPREPQVYTDPPSRDELTKNQVSLTCLVDGFYPSDIAVEWESNGQPENCYKTTPPVLDSDGSFFLYSKLTVDKSRWQQGNVFSCSVMHEALHNHYTQDSLSLSPGK
notes: also called parental CD20xCD3 bispecific antibody of TY25606; TY2455
